The source of these data is the Immune Epitope Database (IEDB).

The target of experiment [1] is HLA-B*15:01. The experiment in a line: IEDB peptide-MHC binding, purified MHC/competitive/fluorescence; filed as Kd, often an IC50 or EC50 that approximates it; ≥ and ≤ were set here for values at or beyond the usual limits of such assays.
Another experiment deals with HLA-A*68:02. The description is as above.
Another experiment addresses HLA-A*30:01. The description is as above. The note with it: source organism: Giardia lamblia ATCC 50803.
The target in the next experiment is HLA-A*26:03. The experiment is described as above.
Experiment [2] concerns the target HLA-A*26:02. The experiment is described as above.
For another experiment, the target named is HLA-A*02:03. Described as above.
For experiment [3], the target named is HLA-B*39:01. Described as above.
Experiment [4] has as its target HLA-A*02:01. The description is as above.
Experiment [5] addresses HLA-A*11:01. Put plainly: IEDB peptide-MHC binding, purified MHC/direct/fluorescence; filed as Kd, often an IC50 or EC50 that approximates it; ≥ and ≤ were set here for values at or beyond the usual limits of such assays.
In the next experiment the target is HLA-B*18:01. The description is as above.
In a further experiment the target is HLA-B*58:01. The description is as above.
A further experiment has as its target HLA-A*31:01. The experiment is described as above.
Experiment [6] has as its target HLA-A*01:01. The experiment is described as above.
In a further experiment the target is HLA-A*26:01. The experiment is described as above.
The next experiment deals with HLA-B*07:02. The description is as above.
The next experiment deals with HLA-B*57:01. The description is as above.
The target in experiment [7] is HLA-B*15:17. The description is as above.
The target of experiment [8] is HLA-A*26:02. Described as above.
Another experiment deals with HLA-B*15:09. The experiment in a line: IEDB peptide-MHC binding, purified MHC/competitive/fluorescence; filed as Kd, often an IC50 or EC50 that approximates it; ≥ and ≤ were set here for values at or beyond the usual limits of such assays.
The target in experiment [9] is HLA-A*11:01. The description is as above. The note with it: source organism: Vaccinia virus.
Experiment [10] addresses HLA-B*15:17. Described as above. The note with it: source organism: Vaccinia virus.
The next experiment deals with HLA-B*27:05. Put plainly: IEDB peptide-MHC binding, purified MHC/direct/fluorescence; filed as Kd, often an IC50 or EC50 that approximates it; ≥ and ≤ were set here for values at or beyond the usual limits of such assays.
A further experiment has as its target HLA-B*48:01. The description is as above.
The next experiment addresses HLA-B*40:01. Described as above.
A further experiment addresses HLA-A*03:01. Described as above.
For a further experiment, the target named is HLA-B*51:01. Described as above. The note with it: source organism: Camelpox virus M-96.
Experiment [11] has as its target HLA-B*08:01. The description is as above.
The target in the next experiment is HLA-B*46:01. The experiment is described as above.
A further experiment addresses HLA-A*69:01. The experiment is described as above.
In experiment [12] the target is HLA-A*02:01. Described as above.
A further experiment deals with HLA-A*02:06. The experiment in a line: IEDB peptide-MHC binding, purified MHC/competitive/fluorescence; filed as Kd, often an IC50 or EC50 that approximates it; ≥ and ≤ were set here for values at or beyond the usual limits of such assays. Conditions: source organism: Yersinia pestis Nepal516.
Experiment [13] addresses HLA-A*01:01. The experiment is described as above. The note with it: source organism: Yersinia pestis Nepal516.
Experiment [14] has as its target HLA-B*15:01. Put plainly: IEDB peptide-MHC binding, purified MHC/direct/fluorescence; filed as Kd, often an IC50 or EC50 that approximates it; ≥ and ≤ were set here for values at or beyond the usual limits of such assays. Conditions: source organism: Yersinia pestis.
The next experiment addresses HLA-B*08:02. The experiment is described as above. Conditions: source organism: Yersinia enterocolitica subsp. enterocolitica 8081.
Another experiment has as its target HLA-B*08:03. The description is as above. The note with it: source organism: Yersinia enterocolitica subsp. enterocolitica 8081.
The target of experiment [15] is HLA-B*39:01. The description is as above. Conditions: source organism: Yersinia enterocolitica subsp. enterocolitica 8081.
In experiment [16] the target is HLA-B*08:01. Put plainly: IEDB peptide-MHC binding, purified MHC/competitive/fluorescence; filed as Kd, often an IC50 or EC50 that approximates it; ≥ and ≤ were set here for values at or beyond the usual limits of such assays. The note with it: source organism: Shigella boydii Sb227.
[17] abbreviates: source organism: Giardia lamblia ATCC 50803.
Where [18] appears, read: source organism: Vaccinia virus.
Setting [19] is: source organism: Camelpox virus M-96.
The mark [20] stands for this setting: source organism: Escherichia coli O157:H7 str. EDL933.
Where [21] appears, read: source organism: Francisella tularensis subsp. tularensis FSC198.
Setting [22] is: source organism: Francisella tularensis subsp. holarctica LVS.
The mark [23] stands for this setting: source organism: Francisella tularensis subsp. tularensis FSC033.
[24] abbreviates: source organism: Yersinia pestis Nepal516.
The mark [25] stands for this setting: source organism: Yersinia pestis.

On to FMKVKFEAL, for which the Kd was 0.168 µM in the experiment with HLA-B*15:01 [1] (setting [17]); 4.62 µM with HLA-A*68:02 (setting [17]); 4.26 µM with HLA-A*30:01; at least 20 µM with HLA-A*26:03 (setting [17]); at least 20 µM in the experiment with HLA-A*26:02 [2] (setting [17]); 0.0298 µM in the experiment with HLA-A*02:03 (setting [17]). The Kd in the experiment with HLA-B*39:01 [3] (setting [17]) was at least 20 µM; with HLA-A*02:01 [4] (setting [17]), 0.217 µM; in the experiment with HLA-A*11:01 [5] (setting [17]) it was at least 20 µM; with HLA-B*18:01 (setting [17]), at least 20 µM; with HLA-B*58:01 (setting [17]), at least 20 µM; in the experiment with HLA-A*31:01 (setting [17]), at least 20 µM. Further, the Kd with HLA-A*01:01 [6] (setting [17]), with HLA-A*26:01 (setting [17]), in the experiment with HLA-B*07:02 (setting [17]), with HLA-B*57:01 (setting [17]) and with HLA-B*15:17 [7] (setting [17]) was at least 20 µM each time.
Turning to STPAILHIM, the Kd with HLA-A*26:02 [8] (source organism: Listeria monocytogenes serotype 4b str. H7858) was found to be 0.003 µM. This counts as single-digit nanomolar.
Turning to RVATENIAV, the Kd with HLA-B*15:09 (setting [18]) was at least 20 µM; in the experiment with HLA-A*11:01 [9] it was at least 20 µM; in the experiment with HLA-B*15:01 [1] (setting [18]) it was 0.445 µM; in the experiment with HLA-B*39:01 [3] (setting [18]) it was 2.81 µM; with HLA-B*15:17 [10], at least 20 µM; with HLA-B*27:05 (setting [19]) it was at least 20 µM. In addition, the Kd with HLA-B*48:01 (setting [19]), with HLA-B*18:01 (setting [19]), with HLA-B*58:01 (setting [19]), with HLA-B*40:01 (setting [19]), with HLA-A*31:01 (setting [19]) and with HLA-A*03:01 (source organism: Variola virus) was at least 20 µM each time. Also, the Kd in the experiment with HLA-B*51:01 is at least 20 µM; with HLA-A*01:01 [6] (setting [19]) it was at least 20 µM; with HLA-B*07:02 (setting [19]) it was 0.226 µM; with HLA-B*08:01 [11] (source organism: Variola virus), at least 20 µM; in the experiment with HLA-B*46:01 (setting [19]) it was at least 20 µM; with HLA-B*57:01 (setting [19]) it was at least 20 µM. Moreover, the Kd with HLA-A*69:01 (setting [19]) was 0.156 µM; with HLA-A*02:01 [12] (setting [19]), 0.0227 µM.
Consider FTHREQLFM, for which the values for the Kd with HLA-A*26:01 (setting [20]) and with HLA-A*26:02 [8] (setting [20]) were 0.059 µM and 0.028 µM, respectively.
Sequence PTIPEQKCM came in with a Kd with HLA-A*26:03 (source organism: Entamoeba histolytica HM-1:IMSS) of at least 20 µM.
For the sequence REMGIVDLL, the Kd with HLA-B*15:09 (setting [21]) is at least 20 µM; in the experiment with HLA-A*68:02 (setting [21]), at least 20 µM; with HLA-B*39:01 [3] (setting [21]), 4 µM; with HLA-A*11:01 [5] (setting [22]), at least 20 µM; in the experiment with HLA-B*27:05 (setting [22]) it was at least 20 µM; in the experiment with HLA-B*48:01 (setting [22]), 0.0932 µM. The Kd was 0.514 µM with HLA-B*18:01 (setting [22]); at least 20 µM with HLA-B*58:01 (setting [22]); 0.0014 µM in the experiment with HLA-B*40:01 (setting [22]); at least 20 µM with HLA-A*31:01 (setting [22]); at least 20 µM in the experiment with HLA-A*01:01 [6] (setting [22]); at least 20 µM with HLA-B*07:02 (setting [22]). Also, the Kd with HLA-B*08:01 [11] (setting [23]), with HLA-B*57:01 (setting [22]), with HLA-A*26:02 [8] (setting [23]), with HLA-B*15:17 [7] (setting [22]), with HLA-A*69:01 (setting [22]) and with HLA-A*02:01 [12] (setting [22]) was at least 20 µM in each case.
In the case of QWSPGPGRL, the Kd in the experiment with HLA-A*26:03 (setting [24]) was at least 20 µM; in the experiment with HLA-A*02:06 it was 0.157 µM; with HLA-A*01:01 [13], at least 20 µM; with HLA-A*26:02 [2] (setting [24]), at least 20 µM; in the experiment with HLA-A*02:03 (setting [24]), 4.85 µM; in the experiment with HLA-B*15:01 [14] it was at least 20 µM. Also, the Kd with HLA-B*08:02, in the experiment with HLA-B*27:05 (setting [25]), with HLA-B*08:03, in the experiment with HLA-B*48:01 (setting [25]), in the experiment with HLA-B*18:01 (setting [25]) and with HLA-B*58:01 (setting [25]) was at least 20 µM each time. Besides, the Kd in the experiment with HLA-B*40:01 (setting [25]) was at least 20 µM; with HLA-A*03:01 (setting [25]), 0.719 µM; in the experiment with HLA-A*26:01 (source organism: Yersinia enterocolitica subsp. enterocolitica 8081), at least 20 µM; in the experiment with HLA-B*07:02 (setting [25]) it was at least 20 µM; with HLA-B*46:01 (setting [25]), at least 20 µM; with HLA-B*57:01 (setting [25]), at least 20 µM. In addition, the Kd with HLA-B*39:01 [15] and with HLA-A*02:01 [12] (setting [25]) was at least 20 µM in each case.
As for FLSHKIHVI, the Kd came out at 0.0861 µM in the experiment with HLA-B*08:01 [16] and 0.0016 µM with HLA-A*02:01 [4] (source organism: Shigella boydii Sb227).

By Kd is commonly meant the free concentration of one partner at which half of the binding sites on the other are occupied at equilibrium, for simple one-to-one binding. Low readings indicate tighter binding, high ones weaker binding.
